B1: Polymerase eta (Polη), purified human (enzyme, UniProt Q9Y253 1-713, looked up)
chain: MATGQDRVVALVDMDCFFVQVEQRQNPHLRNKPCAVVQYKSWKGGGIIAVSYEARAFGVTRSMWADDAKKLCPDLLLAQVRESRGKANLTKYREASVEVMEIMSRFAVIERASIDEAYVDLTSAVQERLQKLQGQPISADLLPSTYIEGLPQGPTTAEETVQKEGMRKQGLFQWLDSLQIDNLTSPDLQLTVGAVIVEEMRAAIERETGFQCSAGISHNKVLAKLACGLNKPNRQTLVSHGSVPQLFSQMPIRKIRSLGGKLGASVIEILGIEYMGELTQFTESQLQSHFGEKNGSWLYAMCRGIEHDPVKPRQLPKTIGCSKNFPGKTALATREQVQWWLLQLAQELEERLTKDRNDNDRVATQLVVSIRVQGDKRLSSLRRCCALTRYDAHKMSHDAFTVIKNCNTSGIQTEWSPPLTMLFLCATKFSASAPSSSTDITSFLSSDPSSLPKVPVTSSEAKTQGSGPAVTATKKATTSLESFFQKAAERQKVKEASLSSLTAPTQAPMSNSPSKPSLPFQTSQSTGTEPFFKQKSLLLKQKQLNNSSVSSPQQNPWSNCKALPNSLPTEYPGCVPVCEGVSKLEESSKATPAEMDLAHNSQSMHASSASKSVLEVTQKATPNPSLLAAEDQVPCEKCGSLVPVWDMPEHMDYHFALELQKSFLQPHSSNPQVVSAVSHQGKRNPKSPLACTNKRPRPEGMQTLESFFKPLTH
B2: GST-PALB2 WD40 domain (residues 853–1186) (domain or fragment, human, UniProt Q86YC2 853-1186, looked up)
chain: GNLQLVSELKNPSGSCSVDVSAMFWERAGCKEPCIITACEDVVSLWKALDAWQWEKLYTWHFAEVPVLQIVPVPDVYNLVCVALGNLEIREIRALFCSSDDESEKQVLLKSGNIKAVLGLTKRRLVSSSGTLSDQQVEVMTFAEDGGGKENQFLMPPEETILTFAEVQGMQEALLGTTIMNNIVIWNLKTGQLLKKMHIDDSYQASVCHKAYSEMGLLFIVLSHPCAKESESLRSPVFQLIVINPKTTLSVGVMLYCLPPGQAGRFLEGDVKDHCAAAILTSGTIAIWDLLLGQCTALLPPVSDQHWSFVKWSGTDSHLLAGQKDGNIFVYHYS
B3: GST-BRCA2 truncation 4 (residues 1338–1781) (domain or fragment, human, UniProt P51587 1338-1781, looked up)
chain: GSDSSKNDTVCIHKDETDLLFTDQHNICLKLSGQFMKEGNTQIKEDLSDLTFLEVAKAQEACHGNTSNKEQLTATKTEQNIKDFETSDTFFQTASGKNISVAKESFNKIVNFFDQKPEELHNFSLNSELHSDIRKNKMDILSYEETDIVKHKILKESVPVGTGNQLVTFQGQPERDEKIKEPTLLGFHTASGKKVKIAKESLDKVKNLFDEKEQGTSEITSFSHQWAKTLKYREACKDLELACETIEITAAPKCKEMQNSLNNDKNLVSIETVVPPKLLSDNLCRQTENLKTSKSIFLKVKVHENVEKETAKSPATCYTNQSPYSVIENSALAFYTSCSRKTSVSQTSLLEAKKWLREGIFDGQPERINTADYVGNYLYENNSNSTIAENDKNHLSEKQDTYLSNSSMSNSYSYHSDEVYNDSGYLSKNKLDSGIEPVLKNVED

Legend:
[1] = molecular target: T1, purified human PALB2 (Partner and localizer of BRCA2) (human, UniProt Q86YC2 1-1186); assay: co-IP
T1 sequence (looked up): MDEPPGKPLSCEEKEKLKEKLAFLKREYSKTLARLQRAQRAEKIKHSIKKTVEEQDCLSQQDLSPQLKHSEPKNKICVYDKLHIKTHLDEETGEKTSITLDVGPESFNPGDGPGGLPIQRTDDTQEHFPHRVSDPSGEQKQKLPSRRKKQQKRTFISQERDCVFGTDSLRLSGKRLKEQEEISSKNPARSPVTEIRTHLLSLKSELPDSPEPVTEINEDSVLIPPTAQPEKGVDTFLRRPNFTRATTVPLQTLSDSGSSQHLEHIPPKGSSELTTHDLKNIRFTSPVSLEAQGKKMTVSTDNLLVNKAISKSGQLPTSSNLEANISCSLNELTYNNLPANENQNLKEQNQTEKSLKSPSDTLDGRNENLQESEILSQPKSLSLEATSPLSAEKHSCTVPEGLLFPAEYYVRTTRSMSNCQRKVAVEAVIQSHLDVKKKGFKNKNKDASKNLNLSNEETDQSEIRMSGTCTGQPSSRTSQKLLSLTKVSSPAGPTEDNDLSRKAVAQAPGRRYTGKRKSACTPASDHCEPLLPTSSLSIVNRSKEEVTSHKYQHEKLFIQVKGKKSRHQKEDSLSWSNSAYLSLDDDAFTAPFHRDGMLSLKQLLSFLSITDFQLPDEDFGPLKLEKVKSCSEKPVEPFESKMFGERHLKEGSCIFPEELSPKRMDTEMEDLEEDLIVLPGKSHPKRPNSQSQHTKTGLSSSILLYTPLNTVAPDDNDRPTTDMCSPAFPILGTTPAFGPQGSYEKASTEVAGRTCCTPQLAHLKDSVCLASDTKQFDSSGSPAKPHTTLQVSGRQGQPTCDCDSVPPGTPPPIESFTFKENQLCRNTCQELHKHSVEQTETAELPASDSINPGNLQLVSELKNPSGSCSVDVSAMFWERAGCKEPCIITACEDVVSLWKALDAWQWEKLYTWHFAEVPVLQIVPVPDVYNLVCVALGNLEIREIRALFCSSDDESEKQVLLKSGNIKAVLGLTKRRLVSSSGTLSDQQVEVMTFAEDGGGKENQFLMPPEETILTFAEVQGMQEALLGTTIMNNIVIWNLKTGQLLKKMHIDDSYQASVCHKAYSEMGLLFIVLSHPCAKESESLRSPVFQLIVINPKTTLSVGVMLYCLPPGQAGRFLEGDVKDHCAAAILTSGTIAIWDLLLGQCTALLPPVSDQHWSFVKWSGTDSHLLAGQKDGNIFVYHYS

[2] = molecular target: B1; assay: pull-down
[3] = molecular target: B1; assay: co-IP

Q: Does B1 bind [1]?
A: Result: binds

Q: Does B2 bind [2]?
A: Result: binds

Q: Does B3 bind [3]?
A: Result: binds
